Source: paper PMC8466238, “Development of High Affinity Calcitonin Analog Fragments Targeting Extracellular Domains of Calcitonin Family Receptors” (Biomolecules, 2021)
Values belong to the molecule of their own block, whether it stands above or below them. The star is where a group is joined. FITC = O=C1OC2(c3ccc(O)cc3Oc3cc(O)ccc32)c2ccc(NC(=S)*)cc21; Ahx = NCCCCCC(=O)O

Experiments:
CGRP receptor = details: versus CGRP(27–37); cited from earlier work
Text: The mutational strategies for developing high-affinity sCT peptide fragments came from the systemic report on CGRP and its high-affinity analogs. […] This supports the idea that applying affinity-enhancing mutations to the cor ...

[1] = molecular target: T1, RAMP1-CTR ECD fusion protein (hRAMP1.24–111-(GSA)3-hCTR.34–141-H6) (human, UniProt O60894 24-111; P30988 34-141); assay: fluorescence polarisation; competition binding, full curves: FITC-AC413(6–25) Y25P probe 10 nM, RAMP1-CTR ECD 77 nM, RAMP2-CTR ECD 67 nM or RAMP3-CTR ECD 252 nM, competitive peptide at multiple concentrations, all in solution; KI from non-linear regression of anisotropy; details: both partners purified
T1 construct: human receptor activity-modifying protein 1 (RAMP1), extracellular domain, residues 24-111; linker, printed as (GSA)3; human calcitonin receptor (CTR), extracellular domain, residues 34-141; Secreted from a pHLsec-based vector; also called AMY receptor 1 ECD; RAMP1 ECD-CTR ECD fusion; source: HEK293T, transiently transfected, secreted to cell culture media, purified (IMAC, SEC)
T1 chain: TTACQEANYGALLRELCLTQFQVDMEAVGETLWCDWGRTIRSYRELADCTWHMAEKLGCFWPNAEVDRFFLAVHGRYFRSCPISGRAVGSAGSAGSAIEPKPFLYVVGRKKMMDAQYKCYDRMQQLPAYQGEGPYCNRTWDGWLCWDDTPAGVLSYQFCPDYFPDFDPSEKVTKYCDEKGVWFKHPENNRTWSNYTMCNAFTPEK

[2] = molecular target: T2, RAMP2-CTR ECD fusion protein (hRAMP2.55–140-(GSA)3-hCTR.34–141-H6) (human, UniProt O60895 55-140; P30988 34-141); assay: as above; details: both partners purified
T2 construct: human receptor activity-modifying protein 2 (RAMP2), extracellular domain, residues 55-140; linker, printed as (GSA)3; human calcitonin receptor (CTR), extracellular domain, residues 34-141; Secreted from a pHLsec-based vector; also called AMY receptor 2 ECD; RAMP2 ECD-CTR ECD fusion; source: HEK293T, transiently transfected, secreted to cell culture media, purified (IMAC, SEC)
T2 chain: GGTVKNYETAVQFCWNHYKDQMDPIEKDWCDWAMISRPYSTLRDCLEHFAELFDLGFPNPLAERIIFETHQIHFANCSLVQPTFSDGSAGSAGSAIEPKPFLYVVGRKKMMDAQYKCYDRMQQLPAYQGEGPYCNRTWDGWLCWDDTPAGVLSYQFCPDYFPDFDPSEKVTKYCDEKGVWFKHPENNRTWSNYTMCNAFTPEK

[3] = molecular target: T3, RAMP3-CTR ECD fusion protein (hRAMP3.25–112-(GSA)3-hCTR.34–141-H6) (human, UniProt O60896 25-112; P30988 34-141); assay: as above; details: both partners purified
T3 construct: human receptor activity-modifying protein 3 (RAMP3), extracellular domain, residues 25-112; linker, printed as (GSA)3; human calcitonin receptor (CTR), extracellular domain, residues 34-141; Secreted from a pHLsec-based vector; also called AMY receptor 3 ECD; RAMP3 ECD-CTR ECD fusion protein; source: HEK293S GnTI-, transiently transfected (PEI), secreted to cell culture media, purified (IMAC, SEC)
T3 chain: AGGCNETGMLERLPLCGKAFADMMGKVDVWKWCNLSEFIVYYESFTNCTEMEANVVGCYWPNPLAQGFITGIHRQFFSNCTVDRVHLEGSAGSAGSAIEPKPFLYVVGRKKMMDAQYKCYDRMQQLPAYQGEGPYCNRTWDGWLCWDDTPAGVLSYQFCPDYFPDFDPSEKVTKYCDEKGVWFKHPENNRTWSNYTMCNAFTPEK

FITC-labeled sCT(22–32) = molecular target: T4, FITC-labeled sCT(22–32) (salmon, SMILES …); assay: fluorescence polarisation; saturation binding: FITC-labeled peptide probe (10 nM) with rising receptor ECD concentrations; receptor ECD concentration at half of the maximal anisotropy; details: both partners purified
T4 construct: salmon calcitonin (sCT), residues 22-32; numbers count on: the mature 32-residue hormone; peptide probe of the FP assay with the CTR ECD; also called FITC-sCT(22–32); source: synthetic peptide (Genscript, HPLC-purified)
T4 peptide: {FITC-Ahx}-YPRTNTGSGTP-NH2

Molecule: CGRPmut: human alpha CGRP(27–37) with N31D, S34P, and K35F mutations
- increase in CGRP affinity for its receptor (CGRP receptor): 100 fold

- binding result [1]: binds
- binding result [2]: binds
- binding result [3]: binds
B1: FITC-labeled AC413(6–25) with Y25P mutation (peptide)
peptide: {FITC-Ahx}-ANFLVRLQTYPRTNVGANTP-NH2
SMILES: CC(C)C[C@H](NC(=O)[C@H](CCCNC(=N)N)NC(=O)[C@@H](NC(=O)[C@H](CC(C)C)NC(=O)[C@H](Cc1ccccc1)NC(=O)[C@H](CC(N)=O)NC(=O)[C@H](C)NC(=O)CCCCCNC(=S)Nc1ccc2c(c1)C(=O)OC21c2ccc(O)cc2Oc2cc(O)ccc21)C(C)C)C(=O)N[C@@H](CCC(N)=O)C(=O)N[C@H](C(=O)N[C@@H](Cc1ccc(O)cc1)C(=O)N1CCC[C@H]1C(=O)N[C@@H](CCCNC(=N)N)C(=O)N[C@H](C(=O)N[C@@H](CC(N)=O)C(=O)N[C@H](C(=O)NCC(=O)N[C@@H](C)C(=O)N[C@@H](CC(N)=O)C(=O)N[C@H](C(=O)N1CCC[C@H]1C(N)=O)[C@@H](C)O)C(C)C)[C@@H](C)O)[C@@H](C)O
notes: residues 6-25 of AC413, an antagonistic amylin peptide analog, with Y25P; peptide probe of the FP assay with the AMY receptor ECDs; also called FITC-AC413(6–25) Y25P; source: synthetic peptide (Genscript, HPLC-purified)

- receptor ECD concentration that produced a half of the maximal anisotropy with the peptide probe (FITC-labeled sCT(22–32)): 500 nM
B2: calcitonin receptor extracellular domain (hCTR.34–141-H6) (receptor, human, UniProt P30988 34-141, looked up)
chain: IEPKPFLYVVGRKKMMDAQYKCYDRMQQLPAYQGEGPYCNRTWDGWLCWDDTPAGVLSYQFCPDYFPDFDPSEKVTKYCDEKGVWFKHPENNRTWSNYTMCNAFTPEK
notes: human calcitonin receptor (CTR), extracellular domain, residues 34-141; Secreted from a pHLsec-based vector; also called CTR ECD; purified CTR ECD; source: HEK293T, transiently transfected, secreted to cell culture media, purified (IMAC, SEC)
